Experiment [1] has as its target Plasmodium falciparum myosin A tail domain interacting protein, residues 61–204 (PfMTIPΔ60) (Plasmodium falciparum) (UniProt Q8I4W8). The experiment can be described thus: differential scanning fluorimetry; 5 μM PfMTIPΔ60 with 200 μM peptide in buffer A (20 mM HEPES pH 7.5, 50 mM NaCl, 1 mM TCEP), 10× SYPRO Orange, 15–80 °C. Background: DSF heats the sample and reads unfolding from a dye or from intrinsic fluorescence.

For experiment [2] the target is unchanged. The experiment can be described thus: ITC; 303 K; cell with about 200 μL of 20 μM PfMTIPΔ60 in buffer A (20 mM HEPES pH 7.5, 50 mM NaCl, 1 mM TCEP); peptide added in 2 μL injections from 250 μM; single site fit; n=1.

Here are results for three substances from paper PMC4506568, “Targeting a Dynamic Protein–Protein Interaction: Fragment Screening against the Malaria Myosin A Motor Complex” (Chemmedchem, 2014).

pKd: −log10 of the molar value.

In the case of “acetylated peptide control1 (acetyl-capped myoA tail from Leu 805) (from UniProt Q8IDR3 805-818)”, the Tm of the complex in experiment [1] is 45.4 °C.

For “acetylated peptide control2 (acetyl-capped myoA tail from Leu 804) (from UniProt Q8IDR3 804-818)”, in experiment [1], the Tm of the complex stood at 54.5 °C.

For “acetylated peptide control3 (acetyl-capped myoA tail from Ser 803) (from UniProt Q8IDR3 803-818)”, the Tm of the complex in experiment [1] amounted to 54.9 °C. Also, the negative-log Kd (pKd) – broadly, −log10 of the Kd, conventionally taken in molar units – in experiment [2] was 6.97.
